Measured values: patent US20120082682A1 (GlaxoSmithKline, published 2012)
Read-outs that look alike come from different tables or passages of the source.

T1: human IL-4 (recombinant E. coli-expressed) (human, UniProt P05112 25-153)
T1 sequence (looked up): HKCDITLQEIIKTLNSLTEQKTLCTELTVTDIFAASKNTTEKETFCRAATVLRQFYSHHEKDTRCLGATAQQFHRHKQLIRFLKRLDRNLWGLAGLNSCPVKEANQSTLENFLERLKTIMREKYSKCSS


Experiments:
[1] = target: T1, human IL-4 (recombinant E. …); assay: Biacore T100 SPR, Protein A capture (CM5), human IL4 analyte, 1:1 fit
Protocol: Protein A was immobilised on a CM5 chip by primary amine coupling; this surface was used as a capture surface for the antibody molecules to be tested.
All binding curves were double referenced with a 0 nM injection (i.e. buffer alone). Regeneration of the Protein A surface was with 50 mM NaOH. The assay was run at 25° C. using HBS-EP as running buffer. The data was fitted to 1:1 model inherent to the Biacore T100 analysis software.

[2] = target: T1, human IL-4 (recombinant E. …); assay: as above; remark: listed apart in the source
Protocol: Purified mAbs and mAbdAb constructs were tested in a BIAcore assay to determine whether the mutation of position 89 had any effect on the binding of the dAb to IL-4.
Protein A was immobilised on a CM5 chip by primary amine coupling; this surface was used as a capture surface for the antibody molecules to be tested. […] Regeneration of the […] surface was achieved using 50 mM NaOH. The assay was run at 25° C. using HBS-EP as running buffer. The data was fitted to 1:1 model inherent to the Biacore T100 analysis software.

[3] = target: T2, human IL-13 (recombinant E. coli-expressed) (human, UniProt P35225 35-146); assay: Biacore T100 SPR, mAb (supernatant) captured on anti-human IgG, IL13 analyte, 1:1 fit
T2 construct: also called hIL-13
Source text: Table 1 details the overall affinities (equilibrium dissociation constant KD) for the selected constructs from the ProteOn screen and the T100 run

T2 sequence (P35225 other isoform, or with tags, fused parts or gaps limits assumed): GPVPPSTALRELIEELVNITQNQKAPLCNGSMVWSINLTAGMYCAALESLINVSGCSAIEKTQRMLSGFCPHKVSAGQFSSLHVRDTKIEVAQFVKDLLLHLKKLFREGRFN

Binder	Kd [1] [nM]	koff [1] [s⁻¹]	kon [1] [M⁻¹ s⁻¹]	Kd [2] [nM]	koff [2] [s⁻¹]	kon [2] [M⁻¹ s⁻¹]	Kd [3] [nM]
BPC1090 (bispecific antibody, human IgG1, kappa, mAbdAb; dAb DOM9-155-154 with Kabat 89 G; also called 829H-(TVAAPS)2GS-154 (89G)) heavy: not shown light: DIVMTQSPLSLPVTPGEPASISCRSSQNIVHINGNTYLEWYLQKPGQSPRLLIYKISDRFSGVPDRFSGSGSGTDFTLKISRVEADDVGIYYCFQGSHVPWTFGQGTKLEIKRTVAAPSVFIFPPSDEQLKSGTASVVCLLNNFYPREAKVQWKVDNALQSGNSQESVTEQDSKDSTYSLSSTLTLSKADYEKHKVYACEVTHQGLSSPVTKSFNRGEC	0.096	0.000416	4.34e+06	0.152	0.000455	3e+06	
BPC1092 (bispecific antibody, human IgG1, kappa, mAbdAb; dAb Kabat 89 H; also called 829H-(TVAAPS)2GS-154 (89H)) heavy: not shown light: DIVMTQSPLSLPVTPGEPASISCRSSQNIVHINGNTYLEWYLQKPGQSPRLLIYKISDRFSGVPDRFSGSGSGTDFTLKISRVEADDVGIYYCFQGSHVPWTFGQGTKLEIKRTVAAPSVFIFPPSDEQLKSGTASVVCLLNNFYPREAKVQWKVDNALQSGNSQESVTEQDSKDSTYSLSSTLTLSKADYEKHKVYACEVTHQGLSSPVTKSFNRGEC	1.71	0.00389	2.27e+06	1.79	0.00534	2.98e+06	
BPC1110 (bispecific antibody, human IgG1, kappa, mAbdAb; dAb Kabat 89 W; also called 829H-(TVAAPS)2GS-154 (89W)) heavy: not shown light: DIVMTQSPLSLPVTPGEPASISCRSSQNIVHINGNTYLEWYLQKPGQSPRLLIYKISDRFSGVPDRFSGSGSGTDFTLKISRVEADDVGIYYCFQGSHVPWTFGQGTKLEIKRTVAAPSVFIFPPSDEQLKSGTASVVCLLNNFYPREAKVQWKVDNALQSGNSQESVTEQDSKDSTYSLSSTLTLSKADYEKHKVYACEVTHQGLSSPVTKSFNRGEC	1.63	0.00173	1.07e+06				
BPC1108 (bispecific antibody, human IgG1, kappa, mAbdAb; dAb Kabat 89 C; also called 829H-(TVAAPS)2GS-154 (89C)) heavy: not shown light: DIVMTQSPLSLPVTPGEPASISCRSSQNIVHINGNTYLEWYLQKPGQSPRLLIYKISDRFSGVPDRFSGSGSGTDFTLKISRVEADDVGIYYCFQGSHVPWTFGQGTKLEIKRTVAAPSVFIFPPSDEQLKSGTASVVCLLNNFYPREAKVQWKVDNALQSGNSQESVTEQDSKDSTYSLSSTLTLSKADYEKHKVYACEVTHQGLSSPVTKSFNRGEC	0.281	0.00123	4.38e+06				
BPC1117 (bispecific antibody, human IgG1, kappa, mAbdAb; dAb Kabat 89 I; also called 829H-(TVAAPS)2GS-154 (89I)) heavy: not shown light: DIVMTQSPLSLPVTPGEPASISCRSSQNIVHINGNTYLEWYLQKPGQSPRLLIYKISDRFSGVPDRFSGSGSGTDFTLKISRVEADDVGIYYCFQGSHVPWTFGQGTKLEIKRTVAAPSVFIFPPSDEQLKSGTASVVCLLNNFYPREAKVQWKVDNALQSGNSQESVTEQDSKDSTYSLSSTLTLSKADYEKHKVYACEVTHQGLSSPVTKSFNRGEC	0.231	0.000913	3.95e+06				
BPC1116 (bispecific antibody, human IgG1, kappa, mAbdAb; dAb Kabat 89 V; also called 829H-(TVAAPS)2GS-154 (89V)) heavy: not shown light: DIVMTQSPLSLPVTPGEPASISCRSSQNIVHINGNTYLEWYLQKPGQSPRLLIYKISDRFSGVPDRFSGSGSGTDFTLKISRVEADDVGIYYCFQGSHVPWTFGQGTKLEIKRTVAAPSVFIFPPSDEQLKSGTASVVCLLNNFYPREAKVQWKVDNALQSGNSQESVTEQDSKDSTYSLSSTLTLSKADYEKHKVYACEVTHQGLSSPVTKSFNRGEC	0.402	0.00274	6.82e+06				
BPC1114 (bispecific antibody, human IgG1, kappa, mAbdAb; dAb Kabat 89 N; also called 829H-(TVAAPS)2GS-154 (89N)) heavy: not shown light: DIVMTQSPLSLPVTPGEPASISCRSSQNIVHINGNTYLEWYLQKPGQSPRLLIYKISDRFSGVPDRFSGSGSGTDFTLKISRVEADDVGIYYCFQGSHVPWTFGQGTKLEIKRTVAAPSVFIFPPSDEQLKSGTASVVCLLNNFYPREAKVQWKVDNALQSGNSQESVTEQDSKDSTYSLSSTLTLSKADYEKHKVYACEVTHQGLSSPVTKSFNRGEC	0.656	0.00255	3.89e+06				
BPC1118 (bispecific antibody, human IgG1, kappa, mAbdAb; dAb Kabat 89 F; also called 829H-(TVAAPS)2GS-154 (89F)) heavy: not shown light: DIVMTQSPLSLPVTPGEPASISCRSSQNIVHINGNTYLEWYLQKPGQSPRLLIYKISDRFSGVPDRFSGSGSGTDFTLKISRVEADDVGIYYCFQGSHVPWTFGQGTKLEIKRTVAAPSVFIFPPSDEQLKSGTASVVCLLNNFYPREAKVQWKVDNALQSGNSQESVTEQDSKDSTYSLSSTLTLSKADYEKHKVYACEVTHQGLSSPVTKSFNRGEC	0.405	0.00258	6.39e+06				
BPC1095 (bispecific antibody, human IgG1, kappa, mAbdAb; dAb Kabat 89 T; also called 829H-(TVAAPS)2GS-154 (89T)) heavy: not shown light: DIVMTQSPLSLPVTPGEPASISCRSSQNIVHINGNTYLEWYLQKPGQSPRLLIYKISDRFSGVPDRFSGSGSGTDFTLKISRVEADDVGIYYCFQGSHVPWTFGQGTKLEIKRTVAAPSVFIFPPSDEQLKSGTASVVCLLNNFYPREAKVQWKVDNALQSGNSQESVTEQDSKDSTYSLSSTLTLSKADYEKHKVYACEVTHQGLSSPVTKSFNRGEC	4.69	0.0318	6.78e+06	5.76	0.0144	2.5e+06	
BPC1091 (bispecific antibody, human IgG1, kappa, mAbdAb; dAb Kabat 89 S; also called 829H-(TVAAPS)2GS-154 (89S)) heavy: not shown light: DIVMTQSPLSLPVTPGEPASISCRSSQNIVHINGNTYLEWYLQKPGQSPRLLIYKISDRFSGVPDRFSGSGSGTDFTLKISRVEADDVGIYYCFQGSHVPWTFGQGTKLEIKRTVAAPSVFIFPPSDEQLKSGTASVVCLLNNFYPREAKVQWKVDNALQSGNSQESVTEQDSKDSTYSLSSTLTLSKADYEKHKVYACEVTHQGLSSPVTKSFNRGEC	0.168	0.00102	6.05e+06	0.244	0.000966	3.96e+06	
BPC1109 (bispecific antibody, human IgG1, kappa, mAbdAb; dAb Kabat 89 R; also called 829H-(TVAAPS)2GS-154 (89R)) heavy: not shown light: DIVMTQSPLSLPVTPGEPASISCRSSQNIVHINGNTYLEWYLQKPGQSPRLLIYKISDRFSGVPDRFSGSGSGTDFTLKISRVEADDVGIYYCFQGSHVPWTFGQGTKLEIKRTVAAPSVFIFPPSDEQLKSGTASVVCLLNNFYPREAKVQWKVDNALQSGNSQESVTEQDSKDSTYSLSSTLTLSKADYEKHKVYACEVTHQGLSSPVTKSFNRGEC	147	0.177	1.2e+06				
BPC1094 (bispecific antibody, human IgG1, kappa, mAbdAb; dAb Kabat 89 A; also called 829H-(TVAAPS)2GS-154 (89A)) heavy: not shown light: DIVMTQSPLSLPVTPGEPASISCRSSQNIVHINGNTYLEWYLQKPGQSPRLLIYKISDRFSGVPDRFSGSGSGTDFTLKISRVEADDVGIYYCFQGSHVPWTFGQGTKLEIKRTVAAPSVFIFPPSDEQLKSGTASVVCLLNNFYPREAKVQWKVDNALQSGNSQESVTEQDSKDSTYSLSSTLTLSKADYEKHKVYACEVTHQGLSSPVTKSFNRGEC	2.08	0.00304	1.46e+06	1.95	0.00373	1.91e+06	
BPC1111 (bispecific antibody, human IgG1, kappa, mAbdAb; dAb Kabat 89 E; also called 829H-(TVAAPS)2GS-154 (89E)) heavy: not shown light: DIVMTQSPLSLPVTPGEPASISCRSSQNIVHINGNTYLEWYLQKPGQSPRLLIYKISDRFSGVPDRFSGSGSGTDFTLKISRVEADDVGIYYCFQGSHVPWTFGQGTKLEIKRTVAAPSVFIFPPSDEQLKSGTASVVCLLNNFYPREAKVQWKVDNALQSGNSQESVTEQDSKDSTYSLSSTLTLSKADYEKHKVYACEVTHQGLSSPVTKSFNRGEC	0.037	0.000111	2.98e+06	0.031	0.000104	3.37e+06	
A1H100A AlaL1 (antibody, human IgG1, kappa, V domains shown, CDRH3 variant of A1L1) VH: QVQLVQSGAEVKKPGSSVKVSCKASGFYIKDTYMHWVRQAPGQGLEWMGTIDPANGNTKYVPKFQGRVTITADESTSTAYMELSSLRSEDTAVYYCARSIYDDYAYDDYYAMDYWGQGTLVTVSS VL: DIVMTQSPLSLPVTPGEPASISCRSSQNIVHINGNTYLEWYLQKPGQSPRLLIYKISDRFSGVPDRFSGSGSGTDFTLKISRVEADDVGIYYCFQGSHVPWTFGQGTKLEIKR							0.172
A1S95TrpL1 (antibody, human IgG1, kappa, V domains shown, CDRH3 variant of A1L1) VH: QVQLVQSGAEVKKPGSSVKVSCKASGFYIKDTYMHWVRQAPGQGLEWMGTIDPANGNTKYVPKFQGRVTITADESTSTAYMELSSLRSEDTAVYYCARWIYDDYHYDDYYAMDYWGQGTLVTVSS VL: DIVMTQSPLSLPVTPGEPASISCRSSQNIVHINGNTYLEWYLQKPGQSPRLLIYKISDRFSGVPDRFSGSGSGTDFTLKISRVEADDVGIYYCFQGSHVPWTFGQGTKLEIKR							0.216
